Literature values as cited in US11820970B2, “High throughput protein-protein interaction screening in yeast liquid culture” (University of Washington, priority 2016, dated 2023).

B1: X-CDP07: de novo (engineered) binding protein for Bcl2 family homologues, displayed as SAP (protein)
chain: ADPKKVLDKAKDRAENVVRKLKKELEELYKEARKLDLTQEMRDRIRLAAIAARIAAFGDIFHAIMEALEEARKLKKAGLVNSQQLDELKRRLEELDEEAAQRAEKLGKEFELKLEY
B2: B-CDP01: de novo (engineered) binding protein for Bcl2 family homologues, displayed as SAP (protein)
chain: ADPKKVLDKAKDQAENRVRELKQELERLYKEARKLDLTQEMRRKLEWRYIAAMLKAIGDILNAIAQAENEADKLKKAGLVNSQQLDELRRRLEELAKEAARKAHDYGREFQLKLEY

Experiments:
Bfl1 = target: T1, Bfl1 (Homo sapiens, UniProt Q16548); conditions: binder vs Bfl1; known affinities; read-out: AFFINITY
T1 sequence (Q16548 1-175): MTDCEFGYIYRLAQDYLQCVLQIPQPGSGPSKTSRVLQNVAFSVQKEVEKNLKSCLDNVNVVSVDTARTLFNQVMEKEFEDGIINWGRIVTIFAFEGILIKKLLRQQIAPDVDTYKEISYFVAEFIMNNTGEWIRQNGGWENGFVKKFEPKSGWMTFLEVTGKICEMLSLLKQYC

BclB = target: T2, BclB (Homo sapiens, UniProt Q9HD36); conditions: binder vs BclB; known affinities; read-out: AFFINITY
T2 sequence (Q9HD36 1-204): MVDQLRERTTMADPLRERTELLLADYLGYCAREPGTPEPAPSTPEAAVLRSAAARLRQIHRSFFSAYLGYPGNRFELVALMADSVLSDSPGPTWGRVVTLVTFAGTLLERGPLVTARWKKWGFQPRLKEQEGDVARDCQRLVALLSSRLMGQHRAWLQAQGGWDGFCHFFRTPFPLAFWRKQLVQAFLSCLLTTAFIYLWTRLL

Bcl2 = Bcl2 (Homo sapiens, UniProt P10415); conditions: binder vs Bcl2; known affinities; read-out: AFFINITY
BclXL = BclXL (Homo sapiens, UniProt Q07817); conditions: binder vs BclXL; known affinities; read-out: AFFINITY
BclW = target: T3, BclW (Homo sapiens, UniProt Q92843); conditions: binder vs BclW; known affinities; read-out: AFFINITY
T3 sequence (Q92843 1-193): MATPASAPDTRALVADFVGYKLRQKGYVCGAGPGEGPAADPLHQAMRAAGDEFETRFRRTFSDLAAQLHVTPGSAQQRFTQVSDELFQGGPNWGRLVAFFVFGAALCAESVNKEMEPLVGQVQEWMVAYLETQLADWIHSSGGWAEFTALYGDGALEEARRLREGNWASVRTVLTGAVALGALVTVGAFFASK

Mcl1 = Mcl1 (Homo sapiens, UniProt Q07820); conditions: binder vs Mcl1; known affinities; read-out: AFFINITY
Chain of Mcl1 (Q07820 whole entry, species assumed): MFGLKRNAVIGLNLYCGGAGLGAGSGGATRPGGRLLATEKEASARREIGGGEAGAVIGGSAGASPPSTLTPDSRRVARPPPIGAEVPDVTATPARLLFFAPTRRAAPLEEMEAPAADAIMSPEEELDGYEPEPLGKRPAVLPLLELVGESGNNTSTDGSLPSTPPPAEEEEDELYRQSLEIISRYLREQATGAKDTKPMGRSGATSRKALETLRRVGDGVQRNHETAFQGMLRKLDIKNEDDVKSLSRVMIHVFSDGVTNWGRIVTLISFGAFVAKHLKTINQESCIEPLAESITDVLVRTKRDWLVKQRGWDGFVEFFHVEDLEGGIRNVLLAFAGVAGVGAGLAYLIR

Chain of BclXL (Q07817 whole entry, species assumed): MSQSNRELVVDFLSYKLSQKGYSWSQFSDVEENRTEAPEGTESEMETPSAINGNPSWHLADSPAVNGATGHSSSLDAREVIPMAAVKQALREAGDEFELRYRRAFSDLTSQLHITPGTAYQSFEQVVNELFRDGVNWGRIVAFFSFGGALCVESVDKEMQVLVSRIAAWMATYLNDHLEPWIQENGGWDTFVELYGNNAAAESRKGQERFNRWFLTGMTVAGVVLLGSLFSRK
Chain of Bcl2 (P10415 whole entry, species assumed): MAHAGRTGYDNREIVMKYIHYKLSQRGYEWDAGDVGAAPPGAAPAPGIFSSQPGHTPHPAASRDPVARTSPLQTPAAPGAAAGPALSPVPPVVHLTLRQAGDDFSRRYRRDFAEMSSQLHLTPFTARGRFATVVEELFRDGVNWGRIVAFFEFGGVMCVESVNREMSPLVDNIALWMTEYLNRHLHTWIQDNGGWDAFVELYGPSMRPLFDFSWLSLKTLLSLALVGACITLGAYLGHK

Molecule | Kd (Bfl1) [nM] | Kd (BclB) [nM] | Kd (Bcl2) [nM] | Kd (BclXL) [nM] | Kd (BclW) [nM] | Kd (Mcl1) [nM]
B1 | 7050 | 107 | 3.81 | 0.59 | 14.9 | 17.4
B2 | 518 | 8.33 | 17.3 | 20.2 | 2010 | 0.46
